Assay results: US20020002277A1, “Inhibitors of platelet activation and recruitment” (priority 1998, published 2002)

Tests used:
[1] = target: T1, N-terminally FLAG-tagged soluble human CD39 secreted from COS-1 cells transfected with pIL2LFlagSolCD39 (human, UniProt P49961 38-476); test: immunoaffinity depletion of COS-1 conditioned medium with conjugated Affigel beads, ATPase activity left in the supernatant
T1 construct: The cleavage site of the leader was not determined for the FLAG-tagged form; In conditioned medium, about 66 kD, glycosylated; also called pIL2LFlagSolCD39 product; tagged soluble CD39
T1 sequence: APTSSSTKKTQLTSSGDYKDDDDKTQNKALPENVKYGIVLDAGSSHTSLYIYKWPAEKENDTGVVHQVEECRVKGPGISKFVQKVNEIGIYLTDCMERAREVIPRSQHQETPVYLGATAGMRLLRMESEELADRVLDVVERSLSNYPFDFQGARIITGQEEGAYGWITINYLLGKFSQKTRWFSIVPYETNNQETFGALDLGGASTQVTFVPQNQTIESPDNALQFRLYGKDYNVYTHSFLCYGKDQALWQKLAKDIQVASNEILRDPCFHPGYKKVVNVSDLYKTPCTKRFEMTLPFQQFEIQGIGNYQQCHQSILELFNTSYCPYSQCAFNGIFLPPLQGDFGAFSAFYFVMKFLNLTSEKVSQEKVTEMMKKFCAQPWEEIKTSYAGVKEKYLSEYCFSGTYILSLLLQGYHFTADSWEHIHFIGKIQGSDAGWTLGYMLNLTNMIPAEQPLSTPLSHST
Method: CM was collected from COS-1 cells transfected with pIL2LFlagSolCD39, which had been cultured for 5 days in DMEM/F12 supplemented with 5% FCS. A 100 μl aliquot of drained Affigel beads (AG) conjugated with either chicken ovalbumin, antiFLAG mAb, or anti-CD39 mAb was added per ml of CM. […] Each cycle involved continuous gentle agitation of the slurry for 14 h at 4° C. followed by centrifugation to recover supernatants for a subsequent binding cycle or for ATPDase activity measurements.

[2] = Enzymatic (ATPase and ADPase) activity of site-directed CD39 mutants; format: biochemical; settings: alanine replacement in conserved apyrase regions
Method: Mutants were assayed for enzymatic (ATPase and ADPase) and platelet inhibitory (dose-dependent inhibition of platelet aggregation) activities. For one series of mutants, residues within the conserved apyrase regions were replaced with alanine.

[3] = test system: platelets; test: Platelet aggregation in platelet-rich plasma from volunteers; format: cell-based, human; settings: alanine replacement mutant
Method: After obtaining informed consent from volunteers, blood was collected via plastic tubing using acid citrate-dextrose (38 mM citric acid; 75 mM sodium citrate; 135 mM glucose) as anticoagulant. Where indicated, volunteers had ingested 650 mg acetylsalicylic acid (ASA) 18 h prior to blood donation. Platelet-rich plasma (PRP) was prepared with an initial whole blood centrifugation (200 g, 15 min, 25° C.), and a second centrifugation of the PRP (90 g, 10 min) to eliminate residual erythrocytes and leukocytes. The stock suspension of PRP was maintained at room temperature under 5% CO2-air.
Total volumes were adjusted to 300 μl with TSG buffer (Marcus et al., J. Clin. Invest. 88:1690, 1991; Marcus et al., J. Clin. Invest. 99:1351, 1997). After the 3 min preincubation, platelet agonists (ADP or collagen) were added at the concentrations indicated, and the aggregation response recorded for 4-5 min.

[4] = Phosphate release assay for ATPase activity; format: biochemical; settings: 100 μL of 10-fold concentrated CM from COS-1 transfectants; 10X buffer with 30 mM cold ATP
[5] = Phosphate release assay for ATPase activity; format: biochemical; settings: for CPM × 10^3 (net counts), ATPase activity in CM: 5 days (Table 3)
Method: This example describes an ATPase assay that may be used to track enzyme activity. Samples (approximately 100 μl of either concentrated CM or purified polypeptide) are combined with 20 μl of 10X assay buffer (200 mM HEPES, 1.2 M NaCl, 50 mM KCl, 15 mM CaCl2, 15 mM MgCl2 and 3 mM ATP) and sterile water is added to a final volume of 200 μl. Radiolabeled ATP (0.8 μCi γ [^32P] ATP; Amersham, Arlington Heights, Ill.) is added and the mixture incubated for 20 minutes at 37° C. Stop mix (0.5 ml of 20% activated charcoal/1 M HCl) is added and the reaction is placed on ice for 10 minutes. After centrifugation (14K rpm for 10 minutes), the supernatant is assayed for free ^32P using a scintillation counter. Data are expressed as raw counts or net counts, or as picomoles of ATP degraded per minute.
The transfections were repeated and the CM (10, 20 and 30 μL, unconcentrated) was assayed essentially as described in Example 7. […] ATPase levels in CM from COS-1 cells transfected with pIL2LFlagSolCD39 increased with time in culture over at least 4 days post-transfection.
To determine whether activity was affected by removal of the N-terminal FLAG® tag, COS-1 cells were transfected with pIL2LFlagSolCD39 and pIL2LSolCD39 and supernatants (sups) were harvested after 5 days. Samples of 10, 20 and 30 μL of 1x sups were assayed for ATPase activity as described in Example 7.
The expression of Trim1 and Trim2 constructs was analyzed in COS-1 cells cultured in 10 cm plates. After 5 days of incubation, 1x supernatants were examined via ELISA (using anti-CD39) and the phosphate-release assay described in Example 7. […] Expression levels, however, appeared to be reduced 3-4 fold.

B1: chicken ovalbumin conjugated to Affigel beads (other, UniProt P01012 2-386, looked up)
chain: GSIGAASMEFCFDVFKELKVHHANENIFYCPIAIMSALAMVYLGAKDSTRTQINKVVRFDKLPGFGDSIEAQCGTSVNVHSSLRDILNQITKPNDVYSFSLASRLYAEERYPILPEYLQCVKELYRGGLEPINFQTAADQARELINSWVESQTNGIIRNVLQPSSVDSQTAMVLVNAIVFKGLWEKAFKDEDTQAMPFRVTEQESKPVQMMYQIGLFRVASMASEKMKILELPFASGTMSMLVLLPDEVSGLEQLESIINFEKLTEWTSSNVMEERKIKVYLPRMKMEEKYNLTSVLMAMGITDVFSSSANLSGISSAESLKISQAVHAAHAEINEAGREVVGSAEAGVDAASVSEEFRADHPFLFCIKHIATNAVLFFGRCVSP
notes: Control beads; also called ovalbumin-conjugated AG; ovalbumin-conjugated beads
[1]
  binding result: no binding

B2: E174A mutant: CD39 mutant, Glutamate 174 replaced with alanine (protein, UniProt P49961 1-510, looked up, variant E174A)
Ectonucleoside triphosphate …: MEDTKESNVKTFCSKNILAILGFSSIIAVIALLAVGLTQNKALPENVKYGIVLDAGSSHTSLYIYKWPAEKENDTGVVHQVEECRVKGPGISKFVQKVNEIGIYLTDCMERAREVIPRSQHQETPVYLGATAGMRLLRMESEELADRVLDVVERSLSNYPFDFQGARIITGQEAGAYGWITINYLLGKFSQKTRWFSIVPYETNNQETFGALDLGGASTQVTFVPQNQTIESPDNALQFRLYGKDYNVYTHSFLCYGKDQALWQKLAKDIQVASNEILRDPCFHPGYKKVVNVSDLYKTPCTKRFEMTLPFQQFEIQGIGNYQQCHQSILELFNTSYCPYSQCAFNGIFLPPLQGDFGAFSAFYFVMKFLNLTSEKVSQEKVTEMMKKFCAQPWEEIKTSYAGVKEKYLSEYCFSGTYILSLLLQGYHFTADSWEHIHFIGKIQGSDAGWTLGYMLNLTNMIPAEQPLSTPLSHSTYVFLMVLFSLVLFTVAIIGLLIFHKPSYFWKDMV
[2]
  enzymatic activity of mutant: completely devoid of enzymatic activity
[3]
  effect on platelet responsiveness: no effect on platelet responsiveness

B3: pIL2LFlagSolCD39: N-terminally FLAG-tagged solCD39 with human proinsulin/IL2 leader and 12 mature IL2 residues (SEQ ID NO:25); COS-1 CM (protein)
chain: MALWIDRMQLLSCIALSLALVTNSAPTSSSTKKTQLTSSGDYKDDDDKTQNKALPENVKYGIVLDAGSSHTSLYIYKWPAEKENDTGVVHQVEECRVKGPGISKFVQKVNEIGIYLTDCMERAREVIPRSQHQETPVYLGATAGMRLLRMESEELADRVLDVVERSLSNYPFDFQGARIITGQEEGAYGWITINYLLGKFSQKTRWFSIVPYETNNQETFGALDLGGASTQVTFVPQNQTIESPDNALQFRLYGKDYNVYTHSFLCYGKDQALWQKLAKDIQVASNEILRDPCFHPGYKKVVNVSDLYKTPCTKRFEMTLPFQQFEIQGIGNYQQCHQSILELFNTSYCPYSQCAFNGIFLPPLQGDFGAFSAFYFVMKFLNLTSEKVSQEKVTEMMKKFCAQPWEEIKTSYAGVKEKYLSEYCFSGTYILSLLLQGYHFTADSWEHIHFIGKIQGSDAGWTLGYMLNLTNMIPAEQPLSTPLSHST
modifications: CDS (1)..(1461)
notes: COS-1 CM
[4]
  CPM Release × 10^3 (raw counts), ATPase activity in concentrated CM: 99.96 CPM × 10^3
[5]; 10 μL 1x COS-1 supernatant
  CPM × 10^3 (net counts), ATPase activity in CM: 23.6 CPM × 10^3
[5]; 10 μL unconcentrated COS-1 CM
  CPM Release × 10^3 (net counts), ATPase activity in CM: 24.71 CPM × 10^3
[5]; 20 μL 1x COS-1 supernatant
  CPM × 10^3 (net counts), ATPase activity in CM: 40.2 CPM × 10^3
[5]; 20 μL unconcentrated COS-1 CM
  CPM Release × 10^3 (net counts), ATPase activity in CM: 43.92 CPM × 10^3
[5]; 30 μL 1x COS-1 supernatant
  CPM × 10^3 (net counts), ATPase activity in CM: 54.4 CPM × 10^3
[5]; 30 μL unconcentrated COS-1 CM
  CPM Release × 10^3 (net counts), ATPase activity in CM: 56.93 CPM × 10^3
